{"source": "the supplement of paper PMC12636428"}
{"test_system": "Saccharomyces cerevisiae", "experiment": "transcriptional activation domain activity (GFP:mCherry ratio, weighted mean of sorted bins, harmonized to initial dataset scale) (arbitrary fluorescence ratio units); higher = stronger transcriptional activation", "details": "beta-estradiol 1 µM; induction time 4 h", "outline": "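After a 1:5 dilution into SC with 1 uM beta-estradiol and 4 hours at 30 °C, yeast diploids carrying a GFP reporter and URA3-integrated barcoded tiles were sorted into 8 bins by GFP:mCherry ratio. The tiles were fused to an estradiol-inducible synthetic transcription factor. Barcodes were sequenced, tiles below 50 reads were discarded, and activation activity was taken as the read-weighted mean of bin median fluorescence, averaged across barcodes and linearly mapped onto the initial dataset scale.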"}
{"sequence": "LKEKSLRILILNGLVRLIWTYLYRCQESPSTTTTKLENLLKYLFPPNRTSVYP", "transcriptional activation domain activity": 44900}
{"sequence": "LKGDHLDAVMVPKCESAADLHFVTDVIRHLRPDRHPSSTASASSSGSRREPVR", "transcriptional activation domain activity": 33200}
{"sequence": "LKHGMMRLDFLCKFSMYGGIERDNQFVKKATGVAFPCVFVLRCLKRPVLTESE", "transcriptional activation domain activity": 55100}
{"sequence": "LKIKLLVAWLWLLDTIHTCLLCSSNWRSLIVHYGDRRALDFIPTTTALGILFT", "transcriptional activation domain activity": 34100}
{"sequence": "LKIKLLVVWFWLLDAIHICMLCSSNWRDLIVHYGDRRTLDYIPPTTALAILFT", "transcriptional activation domain activity": 79600}
{"sequence": "LKIYLLNPLHMTRFADLLYQGAIMNRVIQPYESHLQYLLQWMCDYNLYGCGYI", "transcriptional activation domain activity": 75800}
{"sequence": "LKKHDVNALVTVICNFLICITMALCVVWDSELLPDCLFRVKLIYTLITLGFLC", "transcriptional activation domain activity": 63400}
{"sequence": "LKLLVCVLWCLDTFDFILNCNLLYLFLVTNYMNPLILIKRPPWSLVLHVAVTV", "transcriptional activation domain activity": 53400}
{"sequence": "LKNLMATIGLTRKVLFTGRQLEFYLAAVKLLATKDVFVKWTAIAKNFFMIVWV", "transcriptional activation domain activity": 55500}
{"sequence": "LKQMAGRDFEDILQCIMPVFEGLLPPPHDDLVMSLLFTLAFWHALAKLRLHTE", "transcriptional activation domain activity": 56300}
{"sequence": "LKSKALDAKVPIGLFTVLFFHPFLFPFCSLFPALFAPSFLFLFPLCFVTHFFL", "transcriptional activation domain activity": 52400}
{"sequence": "LKSKSVVSSRTAEEKKEISGALGEGMLQQLVVLLGQVPRIILLILKTNDLTRS", "transcriptional activation domain activity": 52200}
{"sequence": "LLAVDPNVWSHFDIVVLEFSRHYIHFHWKSLLWLVGPVVVWGWMVCTLLVWFI", "transcriptional activation domain activity": 49400}
{"sequence": "LLAWGYVLFNPFAIYSLPYTVLFAFLSLSYLVLTFVLTLPSSLPFYHSKYWFQ", "transcriptional activation domain activity": 66900}
{"sequence": "LLCILLLVYFIYVALFLVSINTGVTLSGLNIQMSSKYSVYYLLIYHVFGFFWL", "transcriptional activation domain activity": 58900}
{"sequence": "LLCKKVVAFFQLLSESHVSGMRRLGVTQELLSLVTGLAHYLKLLIRICLQGAL", "transcriptional activation domain activity": 72100}
{"sequence": "LLDELMNQTKVLQETLDFSLVTPTPHHNDDYKIHGSAYPGGETPAQQHEKLSY", "transcriptional activation domain activity": 35700}
{"sequence": "LLECREDYINNNIRYCDDNKILLKSMIQMFVDLIPFSDKFLGLIFHIVPSFMH", "transcriptional activation domain activity": 44700}
{"sequence": "LLEELTQRLLQTDETPDSKVKDLSRFINMIILRFFATARRMAVFRALFNLLLH", "transcriptional activation domain activity": 50300}
{"sequence": "LLEMGLRWTLDAFGDSARMAGHIFHCLSNLEMTLPSYMYIQLLRSILKLPKTV", "transcriptional activation domain activity": 31000}
{"sequence": "LLESLGHDDSLEFFFVSGMLRYVRFGFWRRIIGYQFRNLRTQITRSIYYDWYR", "transcriptional activation domain activity": 45500}
{"sequence": "LLFFFFFFLLLFFLLFLLLRSRPPSSFSPASIVWPLRAGFGIPLPLFLLFFLP", "transcriptional activation domain activity": 20800}
{"sequence": "LLFFFFLFLSFSSLLHVWGLCLPISSFVGLWSLYLLFSPIPIVLPRVKLLFLA", "transcriptional activation domain activity": 60200}
{"sequence": "LLFFFSFFFVCFKYFPPFFFSSFLSFSFYCLSILTYPIHYPPPVFGISGSFFV", "transcriptional activation domain activity": 51800}
{"sequence": "LLFFSLSLFKKKYLPFILFFFFFYSSLFFFFYPFLFNFFSFFLIFFFFFSLQV", "transcriptional activation domain activity": 34300}
{"sequence": "LLFLLAHWHALAKLRMHTDSTLTLLDCATKSLGAALRDFQTKVCPAFNTHELR", "transcriptional activation domain activity": 51400}
{"sequence": "LLFLPYSCASFFFSLFSLFYFFLFYFFLLFSHIRIFISLSIHFSSSCFSTFLL", "transcriptional activation domain activity": 58300}
{"sequence": "LLFQSGVLRGYGGLLGFWIYLLLSSSFLLHLFYCCYIVLYLFVFVSWLLACLL", "transcriptional activation domain activity": 51700}
{"sequence": "LLFTFCLYPSFLPFLLLSPLFFFLSLSPFSFFSLFSLSLPLLSPSLFSTPFIH", "transcriptional activation domain activity": 39600}
{"sequence": "LLFTLLWLLFFFFFFLFLLFFFVVLVFVFFVVYFFILLLLFIVVDDEWVLLGL", "transcriptional activation domain activity": 45300}
{"sequence": "LLFVTDWALVGLGRFSESCIFFFLFSLWYNFCLHRFFISPTLYSSLTWHCVTS", "transcriptional activation domain activity": 42800}
{"sequence": "LLGLYMKMRFRTQEDFWRQIAILLRDLFVPDLQAETVVFFMRLLYNSNSMYKH", "transcriptional activation domain activity": 24100}
{"sequence": "LLGMFAQLAFADYVMTPSQARLALFVFERLLKLLRAAPYPCVRVAILQLLMWL", "transcriptional activation domain activity": 45500}
{"sequence": "LLGVGYAMVLAWFMCLFYLFPFLGALTLYFVMDVVDLASRTLYKLLHTLPILV", "transcriptional activation domain activity": 52500}
